Experimental data published in US20200199576.

Key:
[1] = biological target: p53, P04637
[2] = biological target: wt UbcH7 (human E2)
[3] = biological target: T1, xUbcH7 (human), R5E, K9E
T1 chain: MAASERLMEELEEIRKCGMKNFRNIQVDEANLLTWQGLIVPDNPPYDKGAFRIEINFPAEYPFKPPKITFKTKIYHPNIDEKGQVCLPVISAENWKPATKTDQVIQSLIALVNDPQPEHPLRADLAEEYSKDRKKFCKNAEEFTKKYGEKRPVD

Chain of p53, P04637 (P04637 whole entry, looked up): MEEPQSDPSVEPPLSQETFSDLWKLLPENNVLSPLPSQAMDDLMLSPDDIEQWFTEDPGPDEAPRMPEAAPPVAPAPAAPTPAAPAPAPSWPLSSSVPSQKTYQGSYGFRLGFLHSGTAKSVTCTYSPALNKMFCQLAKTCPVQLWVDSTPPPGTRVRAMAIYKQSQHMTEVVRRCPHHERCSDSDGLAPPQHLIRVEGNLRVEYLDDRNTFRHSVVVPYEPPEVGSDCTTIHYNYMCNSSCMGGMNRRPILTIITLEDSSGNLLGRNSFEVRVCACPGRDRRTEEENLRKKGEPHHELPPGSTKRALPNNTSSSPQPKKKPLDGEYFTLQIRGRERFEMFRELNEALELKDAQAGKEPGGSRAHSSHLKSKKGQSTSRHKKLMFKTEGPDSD

B1: xCHIP (CHIP-KB2), C213K, G214D, K215P, S217M, F218H, E219T (protein)
chain: MKGKEEKEGGARLGAGGGSPEKSPSAQELKEQGNRLFVGRKYPEAAACYGRAIMQQHEQALADCRRALELDGQSVKAHFFLGQCQLEMESYDEAIANLQRAYSLAKEQRLNFGDDIPSALRIAKKKRWNSIEERRIHQESELHSYLSRLIAAERERELEECQRNHEGDEDDSHVRAQQACIEAKHDKYMADMDELFSQVDEKRKKRDIPDYLKDPIMHTLMREPCITPSGITYDRKDIEEHLQRVGHFDPVTRSPLTQEQLIPNLAMKEVIDAFISENGWVEDY
B1 was tested, and the “p53 ubiquitination with xUB, Western blot” value [1] was “both CHIP mutants could transfer xUB to p53, a known CHIP substrate (26), at an efficiency comparable to wt UB transfer by wt CHIP”.

B2: xCHIP (CHIP-KB12), C213K, G214D, K215P, S217M, F218R, E219T (protein)
chain: MKGKEEKEGGARLGAGGGSPEKSPSAQELKEQGNRLFVGRKYPEAAACYGRAIMQQHEQALADCRRALELDGQSVKAHFFLGQCQLEMESYDEAIANLQRAYSLAKEQRLNFGDDIPSALRIAKKKRWNSIEERRIHQESELHSYLSRLIAAERERELEECQRNHEGDEDDSHVRAQQACIEAKHDKYMADMDELFSQVDEKRKKRDIPDYLKDPIMRTLMREPCITPSGITYDRKDIEEHLQRVGHFDPVTRSPLTQEQLIPNLAMKEVIDAFISENGWVEDY
In the case of B2, the “p53 ubiquitination with xUB, Western blot” value [1] is reported as “both CHIP mutants could transfer xUB to p53, a known CHIP substrate (26), at an efficiency comparable to wt UB transfer by wt CHIP”.

B3: HECT domain of wt Nedd4 (protein)
chain: SRDYKRKYEFFRRKLKKQNDIPNKFEMKLRRATVLEDSYRRIMGVKRADFLKARLWIEFDGEKGLDYGGVAREWFFLISKEMFNPYYGLFEYSATDNYTLQINPNSGLCNEDHLSYFKFIGRVAGMAVYHGKLLDGFFIRPFYKMMLHKPITLHDMESVDSEYYNSLRWILENDPTELDLRFIIDEELFGQTHQHELKNGGSEIVVTNKNKKEYIYLVIQWRFVNRIQKQMAAFKEGFFELIPQDLIKIFDENELELLMCGLGDVDVNDWREHTKYKNGYSANHQVIQWFWKAVLMMDSEKRIRLLQFVTGTSRVPMNGFAELYGSNGPQSFTVEQWGTPEKLPRAHTCFNRLDLPPYESFEELWDKLQMAIENTQGFDGVD
In the case of B3, the “HECT auto-ubiquitination with wt UB, reducing gel” value [2] is reported as “HECT domains of wt E6AP, Nedd4, Smurf1 and Smurf2 can be loaded with wt UB through the wt Uba1-UbcH7 pair” and the “HECT auto-ubiquitination with xUB, reducing gel” value [3] is reported as “the R5E and K9E mutants in the N-terminal helix of xUbcH7 interfered with the transfer of xUB to wt HECT E3s such as E6AP, Nedd4, Smurf1, and Smurf2”.

B4: wt HECT domain of E6AP (protein)
chain: MKRAAAKHLIERYYHQLTEGCGNEACTNEFCASCPTFLRMDNNAAAIKALELYKINAKLCDPHPSKKGASSAYLENSKGAPNNSCSEIKMNKKGARIDFKDVTYLTEEKVYEILELCREREDYSPLIRVIGRVFSSAEALVQSFRKVKQHTKEELKSLQAKDEDKDEDEKEKAACSAAAMEEDSEASSSRIGDSSQGDNNLQKLGPDDVSVDIDAIRRVYTRLLSNEKIETAFLNALVYLSPNVECDLTYHNVYSRDPNYLNLFIIVMENRNLHSPEYLEMALPLFCKAMSKLPLAAQGKLIRLWSKYNADQIRRMMETFQQLITYKVISNEFNSRNLVNDDDAIVAASKCLKMVYYANVVGGEVDTNHNEEDDEEPIPESSELTLQELLGEERRNKKGPRVDPLETELGVKTLDCRKPLIPFEEFINEPLNEVLEMDKDYTFFKVETENKFSFMTCPFILNAVTKNLGLYYDNRIRMYSERRITVLYSLVQGQQLNPYLRLKVRRDHIIDDALVRLEMIAMENPADLKKQLYVEFEGEQGVDEGGVSKEFFQLVVEEIFNPDIGMFTYDESTKLFWFNPSSFETEGQFTLIGIVLGLAIYNNCILDVHFPMVVYRKLMGKKGTFRDLGDSHPVLYQSLKDLLEYEGNVEDDMMITFQISQTDLFGNPMMYDLKENGDKIPITNENRKEFVNLYSDYILNKSVEKQFKAFRRGFHMVTNESPLKYLFRPEEIELLICGSRNLDFQALEETTEYDGGYTRDSVLIREFWEIVHSFTDEQKRLFLQFTTGTDRAPVGGLGKLKMIIAKNGPDTERLPTSHTCFNVLLLPEYSSKEKLKERLLKAITYAKGFGML
B4 was tested, and the “HECT auto-ubiquitination with wt UB, reducing gel” value [2] was “HECT domains of wt E6AP, Nedd4, Smurf1 and Smurf2 can be loaded with wt UB through the wt Uba1-UbcH7 pair”.

B5: E6AP HECT mutant YW6 (D651R, D652E, M653W, M654H) (protein)
chain: MKRAAAKHLIERYYHQLTEGCGNEACTNEFCASCPTFLRMDNNAAAIKALELYKINAKLCDPHPSKKGASSAYLENSKGAPNNSCSEIKMNKKGARIDFKDVTYLTEEKVYEILELCREREDYSPLIRVIGRVFSSAEALVQSFRKVKQHTKEELKSLQAKDEDKDEDEKEKAACSAAAMEEDSEASSSRIGDSSQGDNNLQKLGPDDVSVDIDAIRRVYTRLLSNEKIETAFLNALVYLSPNVECDLTYHNVYSRDPNYLNLFIIVMENRNLHSPEYLEMALPLFCKAMSKLPLAAQGKLIRLWSKYNADQIRRMMETFQQLITYKVISNEFNSRNLVNDDDAIVAASKCLKMVYYANVVGGEVDTNHNEEDDEEPIPESSELTLQELLGEERRNKKGPRVDPLETELGVKTLDCRKPLIPFEEFINEPLNEVLEMDKDYTFFKVETENKFSFMTCPFILNAVTKNLGLYYDNRIRMYSERRITVLYSLVQGQQLNPYLRLKVRRDHIIDDALVRLEMIAMENPADLKKQLYVEFEGEQGVDEGGVSKEFFQLVVEEIFNPDIGMFTYDESTKLFWFNPSSFETEGQFTLIGIVLGLAIYNNCILDVHFPMVVYRKLMGKKGTFRDLGDSHPVLYQSLKDLLEYEGNVEREWHITFQISQTDLFGNPMMYDLKENGDKIPITNENRKEFVNLYSDYILNKSVEKQFKAFRRGFHMVTNESPLKYLFRPEEIELLICGSRNLDFQALEETTEYDGGYTRDSVLIREFWEIVHSFTDEQKRLFLQFTTGTDRAPVGGLGKLKMIIAKNGPDTERLPTSHTCFNVLLLPEYSSKEKLKERLLKAITYAKGFGML
In the case of B5, the “HECT auto-ubiquitination with xUB, Western blot” value [3] is reported as “YW3, YW4 and YW6 could be efficiently auto-ubiquitinated with xUB through the xUba1-xUbcH7 pair”.

B6: xE6AP (fYW6), full-length E6AP with the YW6 HECT domain (protein)
chain: MKRAAAKHLIERYYHQLTEGCGNEACTNEFCASCPTFLRMDNNAAAIKALELYKINAKLCDPHPSKKGASSAYLENSKGAPNNSCSEIKMNKKGARIDFKDVTYLTEEKVYEILELCREREDYSPLIRVIGRVFSSAEALVQSFRKVKQHTKEELKSLQAKDEDKDEDEKEKAACSAAAMEEDSEASSSRIGDSSQGDNNLQKLGPDDVSVDIDAIRRVYTRLLSNEKIETAFLNALVYLSPNVECDLTYHNVYSRDPNYLNLFIIVMENRNLHSPEYLEMALPLFCKAMSKLPLAAQGKLIRLWSKYNADQIRRMMETFQQLITYKVISNEFNSRNLVNDDDAIVAASKCLKMVYYANVVGGEVDTNHNEEDDEEPIPESSELTLQELLGEERRNKKGPRVDPLETELGVKTLDCRKPLIPFEEFINEPLNEVLEMDKDYTFFKVETENKFSFMTCPFILNAVTKNLGLYYDNRIRMYSERRITVLYSLVQGQQLNPYLRLKVRRDHIIDDALVRLEMIAMENPADLKKQLYVEFEGEQGVDEGGVSKEFFQLVVEEIFNPDIGMFTYDESTKLFWFNPSSFETEGQFTLIGIVLGLAIYNNCILDVHFPMVVYRKLMGKKGTFRDLGDSHPVLYQSLKDLLEYEGNVEREWHITFQISQTDLFGNPMMYDLKENGDKIPITNENRKEFVNLYSDYILNKSVEKQFKAFRRGFHMVTNESPLKYLFRPEEIELLICGSRNLDFQALEETTEYDGGYTRDSVLIREFWEIVHSFTDEQKRLFLQFTTGTDRAPVGGLGKLKMIIAKNGPDTERLPTSHTCFNVLLLPEYSSKEKLKERLLKAITYAKGFGML
For B6, the “p53 ubiquitination in the presence of E6, Western blot” value [1] was “fYW6 could efficiently ubiquitinate p53 with xUB through the xUba1-xUbcH7-fYW6 cascade and the ubiquitination was dependent on the E6 protein” and the “full-length E6AP auto-ubiquitination with xUB, Western blot” value [3] was “fYW4 and fYW6 can be auto-ubiquitinated by xUB through the xUba1-xUbcH7 cascade”.

B7: HECT domain of wt Smurf1 (protein)
chain: YERDLVQKLKVLRHELSLQQPQAGHCRIEVSREEIFEESYRQIMKMRPKDLKKRLMVKFRGEEGLDYGGVAREWLYLLCHEMLNPYYGLFQYSTDNIYMLQINPDSSINPDHLSYFHFVGRIMGLAVFHGHYINGGFTVPFYKQLLGKPIQLSDLESVDPELHKSLVWILENDITPVLDHTFCVEHNAFGRILQHELKPNGRNVPVTEENKKEYVRLYVNWRFMRGIEAQFLALQKGFNELIPQHLLKPFDQKELELIIGGLDKIDLNDWKSNTRLKHCVADSNIVRWFWQAVETFDEERRARLLQFVTGSTRVPLQGFKALQGSTGAAGPRLFTIHLIDANTDNLPKAHTCFNRIDIPPYESYEKLYEKLLTAVEETCGFAVE
B7 was tested, and the “HECT auto-ubiquitination with wt UB, reducing gel” value [2] was “HECT domains of wt E6AP, Nedd4, Smurf1 and Smurf2 can be loaded with wt UB through the wt Uba1-UbcH7 pair” and the “HECT auto-ubiquitination with xUB, reducing gel” value [3] was “the R5E and K9E mutants in the N-terminal helix of xUbcH7 interfered with the transfer of xUB to wt HECT E3s such as E6AP, Nedd4, Smurf1, and Smurf2”.
